The text below walks through data of patent US20230346885A1 (published 2023).

Holding throughout (assay): binding, other
For one experiment, the target named is T1, MAGEB2 peptide on HLA (human).
T1 peptide: KVLEFLAKV

Experiment [1] concerns the target T2, NR0B1 peptide on HLA (human).
T2 peptide: GLLKTLRFV

In experiment [2] the target is T3, NR0B1 peptide on HLA (human).
T3 peptide: GLPGGRPVAL

The target in another experiment is T4, NPSR1 peptide on HLA (human).
T4 peptide: VIIQNLPAL

The target in a further experiment is T5, KLK4 peptide on HLA (human).
T5 peptide: FQNSYTIGL

For experiment [3], the target named is T6, MAGEC1 peptide on HLA (human).
T6 peptide: ILQSSPESA

Experiment [4] deals with T7, MAGEC1 peptide on HLA (human).
T7 peptide: FLAMLKNTV

B1: TCR of SEQ ID NOs 419 and 420 (TCR, V domains shown)
Valpha: KQEVTQIPAALSVPEGENLVLNCSFTDSAIYNLQWFRQDPGKGLTSLLLIQSSQREQTSGRLNASLDKSSGRSTLYIAASQPGDSATYLCAVSGGTTDSWGKLQFGAGTQVVVTP
Vbeta: NAGVTQTPKFQVLKTGQSMTLQCAQDMNHEYMSWYRQDPGMGLRLIHYSVGAGITDQGEVPNGYNVSRSTTEDFPLRLLSAAPSQTSVYFCASSFTPYEGYTFGSGTRLTVV
Regarding B1, the binding result with MAGEB2 peptide on HLA is on record as “recognises”.

B2: TCR of SEQ ID NOs 423 and 424 (TCR, V domains shown)
Valpha: KQEVTQIPAALSVPEGENLVLNCSFTDSAIYNLQWFRQDPGKGLTSLLLIQSSQREQTSGRLNASLDKSSGRSTLYIAASQPGDSATYLCAVSGGATDSWGKLQFGAGTQVVVTP
Vbeta: NAGVTQTPKFQVLKTGQSMTLQCAQDMNHEYMSWYRQDPGMGLRLIHYSVGAGITDQGEVPNGYNVSRSTTEDFPLRLLSAAPSQTSVYFCASSYSPWTEAFFGQGTRLTVV
Consider B2, for which, in the experiment with MAGEB2 peptide on HLA, the binding result was “recognises”.

B3: TCR of SEQ ID NOs 453 and 454 (TCR, V domains shown)
Valpha: KQEVTQIPAALSVPEGENLVLNCSFTDSAIYNLQWFRQDPGKGLTSLLLIQSSQREQTSGRLNASLDKSSGRSTLYIAASQPGDSATYLCAVGTDSWGKFQFGAGTQVVVTP
Vbeta: NAGVTQTPKFQVLKTGQSMTLQCAQDMNHEYMSWYRQDPGMGLRLIHYSVGAGITDQGEVPNGYNVSRSTTEDFPLRLLSAAPSQTSVYFCASSFSPNTEAFFGQGTRLTVV
For B3, in the experiment with NR0B1 peptide on HLA [1], the binding result is recorded as “recognises”.

B4: TCR of SEQ ID NOs 457 and 458 (TCR, V domains shown)
Valpha: KQEVTQIPAALSVPEGENLVLNCSFTDSAIYNLQWFRQDPGKGLTSLLLIQSSQREQTSGRLNASLDKSSGRSTLYIAASQPGDSATYLCAVSGYSTLTFGKGTMLLVSP
Vbeta: NAGVTQTPKFRVLKTGQSMTLLCAQDMNHEYMYWYRQDPGMGLRLIHYSVGEGTTAKGEVPDGYNVSRLKKQNFLLGLESAAPSQTSVYFCASTGGGPPLNTEAFFGQGTRLTVV
For the molecule B4, the binding result with NR0B1 peptide on HLA [2] is listed as “recognises”.

B5: TCR of SEQ ID NOs 443 and 444 (TCR, V domains shown)
Valpha: QKEVEQNSGPLSVPEGAIASLNCTYSDRGSQSFFWYRQYSGKSPELIMSIYSNGDKEDGRFTAQLNKASQYVSLLIRDSQPSDSATYLCAVNDSWGKLQFGAGTQVVVTP
Vbeta: DGGITQSPKYLFRKEGQNVTLSCEQNLNHDAMYWYRQDPGQGLRLIYYSQIVNDFQKGDIAEGYSVSREKKESFPLTVTSAQKNPTAFYLCASSMVPGFSEQFFGPGTRLTVL
Regarding B5, in the experiment with NPSR1 peptide on HLA, the binding result is “recognises”.

B6: TCR of SEQ ID NOs 447 and 448 (TCR, V domains shown)
Valpha: QKEVEQNSGPLSVPEGAIASLNCTYSDRGSQSFFWYRQYSGKSPELIMSIYSNGDKEDGRFTAQLNKASQYVSLLIRDSQPSDSATYLCAVSAAGNKLTFGGGTRVLVKP
Vbeta: NAGVTQTPKFRILKIGQSMTLQCTQDMNHNYMYWYRQDPGMGLKLIYYSAGAGITDKGEVPNGYNVSRSTTEDFPLRLELAAPSQTSVYFCASSYFGEQYFGPGTRLTVT
Turning to B6, the binding result with NPSR1 peptide on HLA is reported as “recognises”.

B7: TCR of SEQ ID NOs 411 and 412 (TCR, V domains shown)
Valpha: KQEVTQIPAALSVPEGENLVLNCSFTDSAIYNLQWFRQDPGKGLTSLLLIQSSQREQTSGRLNASLDKSSGRSTLYIAASQPGDSATYLCAVSGGSYIPTFGRGTSLIVHP
Vbeta: NAGVTQTPKFRVLKTGQSMTLLCAQDMNHEYMYWYRQDPGMGLRLIHYSVGEGTTDKGEVPDGYNVSRSTTEDFPLRLLSAAPSQTSVYFCASRKAGYGYTFGSGTRLTVV
With B7, the binding result with KLK4 peptide on HLA is recorded as “recognises”.

B8: TCR of SEQ ID NOs 449 and 450 (TCR, V domains shown)
Valpha: KQEVTQIPAALSVPEGENLVLNCSFTDSAIYNLQWFRQDPGKGLTSLLLIQSSQREQTSGRLNASLDKSSGRSTLYIAASQPGDSATYLCAVRPGDSWGKLQFGAGTQVVVTP
Vbeta: NAGVTQTPKFQVLKTGQSMTLQCAQDMNHEYMSWYRQDPGMGLKLIYYSVGAGITDKGEVPNGYNVSRSTTEDFPLRLLSAAPSQTSVYFCASSSPVGTAFFGQGTRLTVV
On to B8, for which the binding result with NR0B1 peptide on HLA [1] is “recognises”.

B9: TCR of SEQ ID NOs 425 and 426 (TCR, V domains shown)
Valpha: KQEVTQIPAALSVPEGENLVLNCSFTDSAIYNLQWFRQDPGKGLTSLLLIQSSQREQTSGRLNASLDKSSGRSTLYIAASQPGDSATYLCAVRDDYKLSFGAGTTVTVRA
Vbeta: NAGVTQTPKFRVLKTGQSMTLLCAQDMNHEYMYWYRQDPGMGLRLIHYSVGEGTTAKGEVPDGYNVSRLKKQNFLLGLESAAPSQTSVYFCASSYGPGQIYGYTFGSGTRLTVV
Take B9: the binding result in the experiment with MAGEC1 peptide on HLA [3] is reported as “recognises”.

B10: TCR of SEQ ID NOs 427 and 428 (TCR, V domains shown)
Valpha: KQEVTQIPAALSVPEGENLVLNCSFTDSAIYNLQWFRQDPGKGLTSLLLIQSSQREQTSGRLNASLDKSSGRSTLYIAASQPGDSATYLCAVRNDYKLSFGAGTTVTVRA
Vbeta: NAGVTQTPKFRVLKTGQSMTLLCAQDMNHEYMYWYRQDPGMGLRLIHYSVGEGTTAKGEVPDGYNVSRLKKQNFLLGLESAAPSQTSVYFCASSYGPGQIYGYTFGPGTRLTVL
Consider B10, for which the binding result with MAGEC1 peptide on HLA [3] is listed as “recognises”.

B11: TCR of SEQ ID NOs 431 and 432 (TCR, V domains shown)
Valpha: KQEVTQIPAALSVPEGENLVLNCSFTDSAIYNLQWFRQDPGKGLTSLLLIQSSQREQTSGRLNASLDKSSGRSTLYIAASQPGDSATYLCAVGGYNKLIFGAGTRLAVHP
Vbeta: NAGVTQTPKFQVLKTGQSMTLQCAQDMNHNSMYWYRQDPGMGLRLIYYSASEGTTDKGEVPNGYNVSRSTTEDFPLRLLSAAPSQTSVYFCASSLDPLAEAFFGQGTRLTVV
Take B11: in the experiment with MAGEC1 peptide on HLA [4], the binding result is “recognises”.

B12: TCR of SEQ ID NOs 445 and 446 (TCR, V domains shown)
Valpha: KQEVTQIPAALSVPEGENLVLNCSFTDSAIYNLQWFRQDPGKGLTSLLLIQSSQREQTSGRLNASLDKSSGRSTLYIAASQPGDSATYLCAVSPVTSYDKVIFGPGTSLSVIP
Vbeta: NAGVTQTPKFRVLKTGQSMTLLCAQDMNHEYMYWYRQDPGMGLRLIYYSASEGTTDKGEVPNGYNVSRLNKREFSLRLESAAPSQTSVYFCASSYSWFGDGTEAFFGQGTRLTVV
On to B12, for which the binding result with NPSR1 peptide on HLA was “recognises”.

B13: TCR of SEQ ID NOs 433 and 434 (TCR, V domains shown)
Valpha: KQEVTQIPAALSVPEGENLVLNCSFTDSAIYNLQWFRQDPGKGLTSLLLIQSSQREQTSGRLNASLDKSSGRSTLYIAASQPGDSATYLCAVESGNQFYFGTGTSLTVIP
Vbeta: NAGVTQTPKFQVLKTGQSMTLQCAQDMNHEYMSWYRQDPGMGLRLIHYSVGVGITDQGEVPNGYNVSRSTTEDFPLRLLSAAPSQTSVYFCASSFGQGSSPLHFGNGTRLTVT
In the case of B13, the binding result with MAGEC1 peptide on HLA [4] is reported as “recognises”.

B14: TCR of SEQ ID NOs 455 and 456 (TCR, V domains shown)
Valpha: KQEVTQIPAALSVPEGENLVLNCSFTDSAIYNLQWFRQDPGKGLTSLLLIQSSQREQTSGRLNASLDKSSGRSTLYIAASQPGDSATYLCAVRGYQKVTFGTGTKLQVIP
Vbeta: NAGVTQTPKFQVLKTGQSMTLQCAQDMNHEYMSWYRQDPGMGLRLIHYSVGAGITDQGEVPNGYNVSRSTTEDFPLRLLSAAPSQTSVYFCATSGLNTEAFFGQGTRLTVV
Regarding B14, the binding result with NR0B1 peptide on HLA [2] is “recognises”.

B15: TCR of SEQ ID NOs 451 and 452 (TCR, V domains shown)
Valpha: KQEVTQIPAALSVPEGENLVLNCSFTDSAIYNLQWFRQDPGKGLTSLLLIQSSQREQTSGRLNASLDKSSGRSTLYIAASQPGDSATYLCAVGTDSWGKFQFGAGTQVVVTP
Vbeta: NAGVTQTPKFQVLKTGQSMTLQCAQDMNHEYMSWYRQDPGMGLRLIHYSVGAGITDQGEVPNGYNVSRSTTEDFPLRLLSAAPSQTSVYFCASSYSVDSPLHFGNGTRLSVL
As to B15, in the experiment with NR0B1 peptide on HLA [1], the binding result was “recognises”.

B16: TCR of SEQ ID NOs 429 and 430 (TCR, V domains shown)
Valpha: KQEVTQIPAALSVPEGENLVLNCSFTDSAIYNLQWFRQDPGKGLTSLLLIQSSQREQTSGRLNASLDKSSGRSTLYIAASQPGDSATYLCAVRPFSGGYNKLIFGAGTRLAVHP
Vbeta: NAGVTQTPKFQVLKTGQSMTLQCTQDMNHNYMYWYRQDPGMGLKLIYYSVGAGITDQGEVPNGYNVSRSTTEDFPLRLLSAAPSQTSVYFCASSPEYGYYEQYFGPGTRLTVT
As for B16, in the experiment with MAGEC1 peptide on HLA [3], the binding result was “recognises”.

B17: TCR of SEQ ID NOs 421 and 422 (TCR, V domains shown)
Valpha: KQEVTQIPAALSVPEGENLVLNCSFTDSAIYNLQWFRQDPGKGLTSLLLIQSSQREQTSGRLNASLDKSSGRSTLYIAASQPGDSATYLCAVESDDYKLSFGAGTTVTVRA
Vbeta: NAGVTQTPKFQVLKTGQSMTLQCAQDMNHNSMYWYRQDPGMGLRLIYYSASEGTTDKGEVPNGYNVSRLNKREFSLRLESAAPSQTSVYFCASSEALGGVTDTQYFGPGTRLTVL
For B17, in the experiment with MAGEB2 peptide on HLA, the binding result is reported as “recognises”.

B18: TCR of SEQ ID NOs 407 and 408 (TCR, V domains shown)
Valpha: KQEVTQIPAALSVPEGENLVLNCSFTDSAIYNLQWFRQDPGKGLTSLLLIQSSQREQTSGRLNASLDKSSGRSTLYIAASQPGDSATYLCAVRSYNTDKLIFGTGTRLQVFP
Vbeta: NAGVTQTPKFRILKIGQSMTLQCTQDMNHNYMYWYRQDPGMGLKLIYYSVGAGITDKGEVPNGYNVSRSTTEDFPLRLELAAPSQTSVYFCASSYSSWTEAFFGQGTRLTVV
For B18, the binding result with KLK4 peptide on HLA is “recognises”.

B19: TCR of SEQ ID NOs 435 and 436 (TCR, V domains shown)
Valpha: KQEVTQIPAALSVPEGENLVLNCSFTDSAIYNLQWFRQDPGKGLTSLLLIQSSQREQTSGRLNASLDKSSGRSTLYIAASQPGDSATYLCAALSYNTDKLIFGTGTRLQVFP
Vbeta: NAGVTQTPKFRVLKTGQSMTLLCAQDMNHEYMYWYRQDPGMGLRLIHYSVGEGTTAKGEVPDGYNVSRLKKQNFLLGLESAAPSQTSVYFCASKDIPYTEAFFGQGTRLTVV
For B19, the binding result with MAGEC1 peptide on HLA [4] was “recognises”.

B20: TCR of SEQ ID NOs 409 and 410 (TCR, V domains shown)
Valpha: KQEVTQIPAALSVPEGENLVLNCSFTDSAIYNLQWFRQDPGKGLTSLLLIQSSQREQTSGRLNASLDKSSGRSTLYIAASQPGDSATYLCAVTAYNTDKLIFGTGTRLQVFP
Vbeta: NAGVTQTPKFRILKIGQSMTLQCTQDMNHNYMYWYRQDPGMGLKLIYYSVGAGITDKGEVPNGYNVSRSTTEDFPLRLLSAAPSQTSVYFCASSYYPGTSTEAFFGQGTRLTVV
For B20, in the experiment with KLK4 peptide on HLA, the binding result is listed as “recognises”.
